This is an account of results in article PMC12101283, “Validation and Optimization of PURE Ribosome Display for Screening Synthetic Nanobody Libraries” (Antibodies, 2025).

The target in test [1] is T1, human fatty acid binding protein 4 (Homo sapiens, UniProt P15090).
T1 construct: The methods describe only the plasmid His-SUMO-hFABP4-(GGGGS)4-SBP; also called hFABP4; FABP4; source: E. coli BL21 (DE3), purified (Ni-NTA, SEC); not shown: His, N-terminal, cleaved; SUMO, N-terminal, cleaved
The test can be described thus: ITC; MicroCal PEAQ ITC, 25 °C, PBS, one binding site model; 50 µM F4_B6 in cell with 550 µM hFABP4 in syringe. The settings on record: both partners purified.

For test [2], the target named is T1, human fatty acid binding protein 4. The test can be described thus: pull-down; His-tagged nanobody captured from E. coli supernatant on Ni-NTA agarose and washed; 100 µL target protein solution (approximately 0.2 mg/mL) added; washes with PBS (10 mM imidazole in the 3rd); elution with 200 mM imidazole; SDS-PAGE. Conditions: both partners purified.

T1 sequence (P15090 whole entry): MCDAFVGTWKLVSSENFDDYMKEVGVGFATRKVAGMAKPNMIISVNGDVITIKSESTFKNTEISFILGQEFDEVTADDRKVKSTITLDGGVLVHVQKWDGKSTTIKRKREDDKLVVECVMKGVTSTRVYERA

B1: F4_B6 (VHH)
VHH: QVQLVESGGGLVQAGGSLRLSCAASGVDMHNFEMGWYRQAPGKEREFVAAIDDVQPLTYYADSVKGRFTISRDNAKNTVYLQMNSLKPEDTAVYYCAAVKGDFWSESNYWGQGTQVTVSS
notes: source: E. coli BL21; supernatant of lysed cells (ELISA; captured on Ni-NTA for the pull-down); purified (Ni-NTA, SEC) for SEC and ITC
With B1, the Kd (commonly the constant that tells how readily two partners part at equilibrium) in test [1] is approximately 295 nM.

B2: F4_C9 (VHH)
VHH: QVQLVESGGGLVQAGGSLRLSCAASGPPFSFVFMGWYRQAPGKEREFVAAIFDFTDETYYADSVKGRFTISRDNAKNTVYLHMNSLKPEDTAVYYCAAARGLNYWNNVYWGQGTQVTVSS
notes: source: E. coli BL21; supernatant of lysed cells (ELISA; captured on Ni-NTA for the pull-down)
In the case of B2, the binding result in test [2] is given as “binds”.
